Experiment [1] deals with Canine_OSMR_hlgG1_Fc (canine). The experiment in a line: SPR Biacore. Background: In SPR one partner is held on a chip, and binding of the other changes the refractive index at the surface.
The target of experiment [2] is Feline_OSMR_hlgG1_Fc (feline). Nature of the experiment: SPR Biacore.
Sequence of Feline_OSMR_hlgG1_Fc (feline) (chain, as listed by the source limits assumed, form in doubt): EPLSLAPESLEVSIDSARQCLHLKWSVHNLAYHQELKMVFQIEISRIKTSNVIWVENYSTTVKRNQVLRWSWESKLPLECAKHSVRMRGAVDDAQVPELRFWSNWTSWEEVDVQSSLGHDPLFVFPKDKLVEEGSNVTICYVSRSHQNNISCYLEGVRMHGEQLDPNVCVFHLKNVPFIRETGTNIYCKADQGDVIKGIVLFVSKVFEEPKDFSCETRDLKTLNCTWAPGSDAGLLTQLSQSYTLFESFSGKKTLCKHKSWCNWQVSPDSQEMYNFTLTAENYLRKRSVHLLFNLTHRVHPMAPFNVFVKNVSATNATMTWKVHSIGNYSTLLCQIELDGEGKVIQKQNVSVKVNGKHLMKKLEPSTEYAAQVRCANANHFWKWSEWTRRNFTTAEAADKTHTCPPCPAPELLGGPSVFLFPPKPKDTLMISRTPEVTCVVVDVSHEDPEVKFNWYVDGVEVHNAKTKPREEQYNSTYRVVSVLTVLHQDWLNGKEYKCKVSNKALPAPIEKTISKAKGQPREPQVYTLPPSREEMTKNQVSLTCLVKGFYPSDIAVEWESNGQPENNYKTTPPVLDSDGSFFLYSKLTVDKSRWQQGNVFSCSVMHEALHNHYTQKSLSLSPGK

Sequence of Canine_OSMR_hlgG1_Fc (canine) (chain, as listed by the source limits assumed, form in doubt): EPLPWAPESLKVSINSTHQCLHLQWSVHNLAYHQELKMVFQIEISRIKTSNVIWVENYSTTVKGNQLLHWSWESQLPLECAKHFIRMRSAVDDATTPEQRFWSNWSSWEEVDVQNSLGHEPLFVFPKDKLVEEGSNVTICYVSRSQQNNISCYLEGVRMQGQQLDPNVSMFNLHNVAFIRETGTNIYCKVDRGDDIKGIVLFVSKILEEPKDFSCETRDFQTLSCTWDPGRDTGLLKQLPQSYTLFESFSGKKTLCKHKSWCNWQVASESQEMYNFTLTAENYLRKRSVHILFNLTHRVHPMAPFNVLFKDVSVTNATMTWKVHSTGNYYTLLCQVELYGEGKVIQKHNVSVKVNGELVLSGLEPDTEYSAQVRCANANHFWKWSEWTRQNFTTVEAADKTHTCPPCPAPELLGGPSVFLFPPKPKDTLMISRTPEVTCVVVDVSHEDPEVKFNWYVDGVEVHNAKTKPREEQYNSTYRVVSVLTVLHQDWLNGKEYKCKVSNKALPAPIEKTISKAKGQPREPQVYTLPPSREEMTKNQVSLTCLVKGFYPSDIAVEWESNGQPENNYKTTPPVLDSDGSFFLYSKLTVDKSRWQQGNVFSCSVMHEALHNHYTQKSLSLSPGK

B1: FEL_09E09_1.1 (antibody)
heavy: DVQLVESGGDLVKPGGSLRLTCVASGFTYSSYAMSWVRQAPGKGLQWVAYISSGGDYIYYADTVKGRFTISRDNAKNTLYLQMNSLKTEDTATYYCVRDPITGTFAYWGQGTLVTVSSASTTAPSVFPLAPSCGTTSGATVALACLVLGYFPEPVTVSWNSGALTSGVHTFPAVLQASGLYSLSSMVTVPSSRWLSDTFTCNVAHPPSNTKVDKTVRKTDHPPGPKPCDCPKCPPPEAAGAPSIFIFPPKPKDTLSISRTPEVTCLVVDLGPDDSDVQITWFVDNTQVYTAKTSPREEQFNSTYRVVSVLPILHQDWLKGKEFKCKVNSKSLPSPIERTISKAKGQPHEPQVYVLPPAQEELSRNKVSVTCLIKSFHPPDIAVEWEITGQPEPENNYRTTPPQLDSDGTYFVYSKLSVDRSHWQRGNTYTCSVSHEALHSHHTQKSLTQSPGK
light: EIQMTQSPSSLSASPGDRVTITCRASQDINNYLNWYQQKPGKVPKLLIYYTSTLHSGVPSRFSGSGSGTDFTLTISSLEPEDAATYYCQQGNTLPWTFGQGTRSDAQPSVFLFQPSLDELHTGSASIVCILNDFYPKEVNVKWKVDGVVQNKGIQESTTEQNSKDSTYSLSSTLTMSSTEYQSHEKFSCEVTHKSLASTLVKSFQRSECQRE
In experiment [1], B1 returned a dissociation constant (Kd) of 18.2 nM, a koff of 0.00105 s⁻¹ and an association rate constant (kon) of 57500 M⁻¹ s⁻¹. For the same molecule, in experiment [2], the dissociation constant Kd was 7.73 nM, the dissociation rate constant (koff) came out at 0.000979 s⁻¹ and the kon came to 127000 M⁻¹ s⁻¹.

B2: CAN_09E09_1.2 (antibody)
heavy: EVQLVESGGDLVKPGGSLRLSCVASGFTFSSYAMSWVRQAPGKGLQWVAYISSGGDYIYYADTVKGRFTISRDNAKNTLYLQMNSLRAEDTAMYYCVRDPITGTFAYWGQGTLVTVSSASTTAPSVFPLAPSCGSTSGSTVALACLVSGYFPEPVTVSWNSGSLTSGVHTFPSVLQSSGLYSLSSMVTVPSSRWPSETFTCNVAHPASKTKVDKPVPKRENGRVPRPPDCPKCPAPEMLGGPSVFIFPPKPKDTLLIARTPEVTCVVVDLDPEDPEVQISWFVDGKQMQTAKTQPREEQFNGTYRVVSVLPIGHQDWLKGKQFTCKVNNKALPSPIERTISKARGQAHQPSVYVLPPSREELSKNTVSLTCLIKDFFPPDIDVEWQSNGQQEPESKYRTTPPQLDEDGSYFLYSKLSVDKSRWQRGDTFICAVMHEALHNHYTQESLSHSPGK
light: DIVLTQPTSVSGSLGQRVTISCRASQDINNYLNWYQQLPGKAPKLLVYYTSTLHSGVPDRFSGSNSGSSATLTITGLQAEDEADYYCQQGNTLPWTFGQGTRNDAQPAVYLFQPSPDQLHTGSASVVCLLNSFYPKDINVKWKVDGVIQDTGIQESVTEQDKDSTYSLSSTLTMSSTEYLSHELYSCEITHKSLPSTLIKSFQRSEC
Regarding B2, in experiment [1], the dissociation constant Kd is 37.7 nM, the off-rate (koff) stood at 0.00108 s⁻¹ and the on-rate (kon) is 28600 M⁻¹ s⁻¹. In experiment [2], this molecule returned a Kd of 11 nM, a koff of 0.00184 s⁻¹ and a kon of 167000 M⁻¹ s⁻¹.

B3: FEL_19F07_1.1 (antibody)
heavy: DVQLVESGGDLVKPGGSLRLTCVASGFTYSDYYMAWVRQAPGKGLQWVANINYDGSSTYYLDSLKSRFTISRDNAKNTLYLQMNSLKTEDTATYYCVRGLTWDFDVWGQGTLVTVSSASTTAPSVFPLAPSCGTTSGATVALACLVLGYFPEPVTVSWNSGALTSGVHTFPAVLQASGLYSLSSMVTVPSSRWLSDTFTCNVAHPPSNTKVDKTVRKTDHPPGPKPCDCPKCPPPEAAGAPSIFIFPPKPKDTLSISRTPEVTCLVVDLGPDDSDVQITWFVDNTQVYTAKTSPREEQFNSTYRVVSVLPILHQDWLKGKEFKCKVNSKSLPSPIERTISKAKGQPHEPQVYVLPPAQEELSRNKVSVTCLIKSFHPPDIAVEWEITGQPEPENNYRTTPPQLDSDGTYFVYSKLSVDRSHWQRGNTYTCSVSHEALHSHHTQKSLTQSPGK
light: EIQMTQSPSSLSASPGDRVTITCKASQDVDTAVAWYQQKPGKVPKLLIYLASTRHTGVPSRFSGSGSGTDFTLTISSLEPEDAATYYCQQYSRFPLTFGQGTRSDAQPSVFLFQPSLDELHTGSASIVCILNDFYPKEVNVKWKVDGVVQNKGIQESTTEQNSKDSTYSLSSTLTMSSTEYQSHEKFSCEVTHKSLASTLVKSFQRSECQRE
As to B3, in experiment [1], the Kd was determined as 10.3 nM, the off-rate constant (koff) came out at 0.000294 s⁻¹ and the on-rate (kon) was found to be 28500 M⁻¹ s⁻¹. Moreover, in experiment [2], the dissociation constant (Kd) came out at 0.783 nM, the off-rate constant (koff) was determined as 6.37e-05 s⁻¹ and the kon was 81300 M⁻¹ s⁻¹.

B4: FEL_19F07_2.2 (antibody)
heavy: DVQLVESGGNLVKPGGSLRLTCVASGFTFSDYYMAWVRQAPGKGLQWVANINYDGSSTYYLDSLKSRFTISRDNAKNTLYLQMNSLKTEDTATYYCARGLTWDFDVWGQGTLVTVSSASTTAPSVFPLAPSCGTTSGATVALACLVLGYFPEPVTVSWNSGALTSGVHTFPAVLQASGLYSLSSMVTVPSSRWLSDTFTCNVAHPPSNTKVDKTVRKTDHPPGPKPCDCPKCPPPEAAGAPSIFIFPPKPKDTLSISRTPEVTCLVVDLGPDDSDVQITWFVDNTQVYTAKTSPREEQFNSTYRVVSVLPILHQDWLKGKEFKCKVNSKSLPSPIERTISKAKGQPHEPQVYVLPPAQEELSRNKVSVTCLIKSFHPPDIAVEWEITGQPEPENNYRTTPPQLDSDGTYFVYSKLSVDRSHWQRGNTYTCSVSHEALHSHHTQKSLTQSPGK
light: DITMTQSPGSLAGSPGQQVTMNCKASQDVDTAVAWYQQKPGQHPKLLIYLASTRHTGVPDRFSGSGSGTDFTLTISNLQAEDVASYYCQQYSRFPLTFGQGTRSDAQPSVFLFQPSLDELHTGSASIVCILNDFYPKEVNVKWKVDGVVQNKGIQESTTEQNSKDSTYSLSSTLTMSSTEYQSHEKFSCEVTHKSLASTLVKSFQRSECQRE
For the molecule B4, in experiment [1], the Kd turned out to be 4.4 nM, the dissociation rate constant (koff) was found to be 0.000215 s⁻¹ and the kon worked out at 48800 M⁻¹ s⁻¹. In experiment [2], this molecule came in with a Kd of 0.00332 nM, an off-rate (koff) of 5.62e-07 s⁻¹ and an on-rate constant (kon) of 169000 M⁻¹ s⁻¹.

B5: FEL_19F07_1.2 (antibody)
heavy: DVQLVESGGDLVKPGGSLRLTCVASGFTYSDYYMAWVRQAPGKGLQWVANINYDGSSTYYLDSLKSRFTISRDNAKNTLYLQMNSLKTEDTATYYCVRGLTWDFDVWGQGTLVTVSSASTTAPSVFPLAPSCGTTSGATVALACLVLGYFPEPVTVSWNSGALTSGVHTFPAVLQASGLYSLSSMVTVPSSRWLSDTFTCNVAHPPSNTKVDKTVRKTDHPPGPKPCDCPKCPPPEAAGAPSIFIFPPKPKDTLSISRTPEVTCLVVDLGPDDSDVQITWFVDNTQVYTAKTSPREEQFNSTYRVVSVLPILHQDWLKGKEFKCKVNSKSLPSPIERTISKAKGQPHEPQVYVLPPAQEELSRNKVSVTCLIKSFHPPDIAVEWEITGQPEPENNYRTTPPQLDSDGTYFVYSKLSVDRSHWQRGNTYTCSVSHEALHSHHTQKSLTQSPGK
light: DITMTQSPGSLAGSPGQQVTMNCKASQDVDTAVAWYQQKPGQHPKLLIYLASTRHTGVPDRFSGSGSGTDFTLTISNLQAEDVASYYCQQYSRFPLTFGQGTRSDAQPSVFLFQPSLDELHTGSASIVCILNDFYPKEVNVKWKVDGVVQNKGIQESTTEQNSKDSTYSLSSTLTMSSTEYQSHEKFSCEVTHKSLASTLVKSFQRSECQRE
In experiment [1], B5 registered a Kd of 31 nM, an off-rate (koff) of 0.000327 s⁻¹ and a kon of 10500 M⁻¹ s⁻¹. Also, in experiment [2], the dissociation constant Kd is 0.435 nM, the off-rate (koff) was determined as 1.95e-05 s⁻¹ and the kon was 44700 M⁻¹ s⁻¹.

By Kd is commonly meant the constant that tells how readily two partners part at equilibrium. A lower Kd goes with tighter binding. As usually defined, the koff is the rate constant with which the complex falls apart. The kon is the second-order rate constant of association.
